Measured values taken from patent US20220153847A1 (Chugai, published 2022).

What was measured:
[1] = target: DQ2.5/omega 2 gliadin peptide on IHW9023 cells (human); test: cell-based or functional assay
[2] = target: DQ2.5/alpha 1 gliadin peptide on IHW9023 cells (human); test: cell-based or functional assay
[3] = target: DQ2.5/alpha 2 gliadin peptide on IHW9023 cells (human); test: cell-based or functional assay
[4] = target: DQ2.5/gamma 4a gliadin peptide on IHW9023 cells (human); test: cell-based or functional assay
[5] = target: DQ2.5/omega 1 gliadin peptide on IHW9023 cells (human); test: cell-based or functional assay
[6] = target: DQ2.5/BC hordein peptide on IHW9023 cells (human); test: cell-based or functional assay
[7] = target: DQ2.5/alpha 1b gliadin peptide on IHW9023 cells (human); test: cell-based or functional assay
[8] = target: DQ2.5/gamma 1 gliadin peptide on IHW9023 cells (human); test: cell-based or functional assay
[9] = target: HLA-DQ2.5/33mer gliadin peptide on IHW9088 cells (human); test: cell-based or functional assay
[10] = target: T1, HLA-DQ2.5/alpha 1b gliadin peptide complex on Ba/F3 cells (human); test: FACS, Ba/F3 cells; IC17=0%, DQN0139bb=100%;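 further: flow cytometric binding of anti-HLA-DQ antibodies, each applied at 5 µg/mL for 30 min at room temperature, to Ba/F3 cell lines displaying HLA-DQ–peptide complexes; antibody tested at 5 microgram/mL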
T1 construct: whole, on cells; also called Ba/F3-HLA-DQ2.5/alpha 1b gliadin; HLA-DQ2.5/a1b gliadin
Source text: (§1) The binding of anti-HLA-DQ antibodies to Ba/F3-HLA-DQ2.5, Ba/F3-HLA-DQ2.2, Ba/F3-HLA-DQ7.5, Ba/F3-HLA-DQ8, Ba/F3-HLA-DQ5.1, Ba/F3-HLA-DQ6.3, Ba/F3-HLA-DQ7.3, Ba/F3-HLA-DR, Ba/F3-HLA-DP, Ba/F3-HLA-DQ2.5/CLIP, Ba/F3-HLA-DQ2.5/HBV, Ba/F3-HLA-DQ2.5/Salmonella, Ba/F3-HLA-DQ2.5/TPO, Ba/F3-HLA-DQ2.5/M. bovis, Ba/F3-HLA-DQ2.5/alpha 1 gliadin, Ba/F3-HLA-DQ2.5/alpha 2 gliadin, Ba/F3-HLA-DQ2.5/gamma 1 gliadin, Ba/F3-HLA-DQ2.5/gamma 2 gliadin, Ba/F3-HLA-DQ2.5/omega 1 gliadin, Ba/F3-HLA-DQ2.5/omega 2 gliadin, Ba/F3-HLA-DQ2.5/BC hordein, Ba/F3-HLA-DQ2.5/alpha 3 gliadin, Ba/F3-HLA-DQ2.5/alpha 1b gliadin, Ba/F3-HLA-DQ2.5/gamma 4b gliadin, Ba/F3-HLA-DQ2.5/avenin 1, Ba/F3-HLA-DQ2.5/avenin 2, Ba/F3-HLA-DQ2.5/avenin 3, Ba/F3-HLA-DQ2.5/hordein 1, Ba/F3-HLA-DQ2.5/hordein 2, Ba/F3-HLA-DQ2.5/secalin 1, Ba/F3-HLA-DQ2.5/secalin 2, Ba/F3-HLA-DQ2.5/14mer 1, Ba/F3-HLA-DQ2.5/33mer gliadin, Ba/F3-HLA-DQ2.5/26mer gliadin, was tested. 5 microgram/mL of each of the anti-HLA-DQ antibodies was incubated with each cell line for 30 minutes at room temperature and washed with FACS buffer (2% FBS, 2 mM EDTA in PBS).

[11] = target: T2, HLA-DQ2.5/alpha 3 gliadin peptide complex on Ba/F3 cells (human); test: FACS, Ba/F3 cells; IC17=0%, DQN0139bb=100%;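 further: flow cytometric binding of anti-HLA-DQ antibodies, each applied at 5 µg/mL for 30 min at room temperature, to Ba/F3 cell lines displaying HLA-DQ–peptide complexes; antibody tested at 5 microgram/mL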
T2 construct: whole, on cells; also called Ba/F3-HLA-DQ2.5/alpha 3 gliadin; HLA-DQ2.5/a3 gliadin
Source text: as §1

[12] = target: T3, HLA-DQ2.5/gamma 1 gliadin peptide complex on Ba/F3 cells (human); test: FACS, Ba/F3 cells; IC17=0%, DQN0139bb=100%;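 further: flow cytometric binding of anti-HLA-DQ antibodies, each applied at 5 µg/mL for 30 min at room temperature, to Ba/F3 cell lines displaying HLA-DQ–peptide complexes; antibody tested at 5 microgram/mL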
T3 construct: whole, on cells; also called Ba/F3-HLA-DQ2.5/gamma 1 gliadin; HLA-DQ2.5/g1 gliadin
Source text: as §1

[13] = target: T4, HLA-DQ2.5/secalin 1 peptide complex on Ba/F3 cells (human); test: FACS, Ba/F3 cells; IC17=0%, DQN0139bb=100%;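 further: flow cytometric binding of anti-HLA-DQ antibodies, each applied at 5 µg/mL for 30 min at room temperature, to Ba/F3 cell lines displaying HLA-DQ–peptide complexes; antibody tested at 5 microgram/mL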
T4 construct: whole, on cells; also called Ba/F3-HLA-DQ2.5/secalin 1
Source text: as §1

[14] = target: T5, HLA-DQ2.5/33mer gliadin peptide complex on Ba/F3 cells (human); test: FACS, Ba/F3 cells; IC17=0%, DQN0139bb=100%
T5 construct: whole, on cells; also called Ba/F3-HLA-DQ2.5/33mer gliadin
Source text: as §1

[15] = target: T6, HLA-DQ2.5/26mer gliadin peptide complex on Ba/F3 cells (human); test: FACS, Ba/F3 cells; IC17=0%, DQN0139bb=100%
T6 construct: whole, on cells; also called Ba/F3-HLA-DQ2.5/26mer gliadin
Source text: as §1

[16] = target: T7, HLA-DQ2.5/secalin 2 peptide complex on Ba/F3 cells (human); test: FACS, Ba/F3 cells; IC17=0%, DQN0139bb=100%
T7 construct: whole, on cells; also called Ba/F3-HLA-DQ2.5/secalin 2
Source text: as §1

[17] = target: T8, HLA-DQ2.5/omega 1 gliadin peptide complex on Ba/F3 cells (human); test: FACS, Ba/F3 cells; IC17=0%, DQN0139bb=100%
T8 construct: whole, on cells; also called Ba/F3-HLA-DQ2.5/omega 1 gliadin; HLA-DQ2.5/w1 gliadin
Source text: as §1

[18] = target: T9, HLA-DQ2.5/alpha 1 gliadin peptide complex on Ba/F3 cells (human); test: FACS, Ba/F3 cells; IC17=0%, DQN0139bb=100%
T9 construct: whole, on cells; also called Ba/F3-HLA-DQ2.5/alpha 1 gliadin; HLA-DQ2.5/a1 gliadin
Source text: as §1

[19] = target: T10, HLA-DQ2.5/avenin 2 peptide complex on Ba/F3 cells (human); test: FACS, Ba/F3 cells; IC17=0%, DQN0139bb=100%
T10 construct: whole, on cells; also called Ba/F3-HLA-DQ2.5/avenin 2
Source text: as §1

[20] = target: T11, HLA-DQ2.5/avenin 1 peptide complex on Ba/F3 cells (human); test: FACS, Ba/F3 cells; IC17=0%, DQN0139bb=100%
T11 construct: whole, on cells; also called Ba/F3-HLA-DQ2.5/avenin 1
Source text: as §1

[21] = target: T12, HLA-DQ2.5/hordein 1 peptide complex on Ba/F3 cells (human); test: FACS, Ba/F3 cells; IC17=0%, DQN0139bb=100%
T12 construct: whole, on cells; also called Ba/F3-HLA-DQ2.5/hordein 1
Source text: as §1

[22] = target: T13, HLA-DQ2.5/alpha 2 gliadin peptide complex on Ba/F3 cells (human); test: FACS, Ba/F3 cells; IC17=0%, DQN0139bb=100%
T13 construct: whole, on cells; also called Ba/F3-HLA-DQ2.5/alpha 2 gliadin; HLA-DQ2.5/a2 gliadin
Source text: as §1

[23] = target: T14, HLA-DQ2.5/gamma 4b gliadin peptide complex on Ba/F3 cells (human); test: FACS, Ba/F3 cells; IC17=0%, DQN0139bb=100%
T14 construct: whole, on cells; also called Ba/F3-HLA-DQ2.5/gamma 4b gliadin; HLA-DQ2.5/g4b gliadin
Source text: as §1

[24] = target: T15, HLA-DQ2.5/avenin 3 peptide complex on Ba/F3 cells (human); test: FACS, Ba/F3 cells; IC17=0%, DQN0139bb=100%
T15 construct: whole, on cells; also called Ba/F3-HLA-DQ2.5/avenin 3
Source text: as §1

[25] = target: T16, HLA-DQ2.5 on HLA-DQ2.5-positive PBMC B cells (human, UniProt P01909 24-254; P01920 33-261); test: FACS, PBMC B cells; IC17=0%, DQN0139bb=100%
T16 construct: whole, on cells; also called HLA-DQ2.5+ PBMC B cell
T16 MHC II alpha: not shown
T16 MHC II beta: not shown

[26] = target: DQ2.5/gamma 2 gliadin peptide on IHW9023 cells (human); test: cell-based or functional assay
[27] = target: T17, HLA-DQ2.5/CLIP peptide complex on Ba/F3 cells (human); test: FACS, Ba/F3 cells; IC17=0%, DQN0139bb=100%
T17 construct: whole, on cells; also called Ba/F3-HLA-DQ2.5/CLIP
Source text: as §1

[28] = target: T18, HLA-DQ2.5/BC hordein peptide complex on Ba/F3 cells (human); test: FACS, Ba/F3 cells; IC17=0%, DQN0139bb=100%
T18 construct: whole, on cells; also called Ba/F3-HLA-DQ2.5/BC hordein
Source text: as §1

[29] = target: T19, HLA-DQ2.5/gamma 2 gliadin peptide complex on Ba/F3 cells (human); test: FACS, Ba/F3 cells; IC17=0%, DQN0139bb=100%
T19 construct: whole, on cells; also called Ba/F3-HLA-DQ2.5/gamma 2 gliadin; HLA-DQ2.5/g2 gliadin
Source text: as §1

[30] = target: T20, HLA-DQ2.5/14mer 1 peptide complex on Ba/F3 cells (human); test: FACS, Ba/F3 cells; IC17=0%, DQN0139bb=100%
T20 construct: whole, on cells; also called Ba/F3-HLA-DQ2.5/14mer 1
Source text: as §1

[31] = target: T21, HLA-DQ2.5/omega 2 gliadin peptide complex on Ba/F3 cells (human); test: FACS, Ba/F3 cells; IC17=0%, DQN0139bb=100%
T21 construct: whole, on cells; also called Ba/F3-HLA-DQ2.5/omega 2 gliadin; HLA-DQ2.5/w2 gliadin
Source text: as §1

[32] = target: T22, HLA-DQ2.5/hordein 2 peptide complex on Ba/F3 cells (human); test: FACS, Ba/F3 cells; IC17=0%, DQN0139bb=100%
T22 construct: whole, on cells; also called Ba/F3-HLA-DQ2.5/hordein 2
Source text: as §1

T17 sequence (P04233 96-124, chain 2 of 2, other chains not shown): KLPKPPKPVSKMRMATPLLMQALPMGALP

B1: DQN0139bb (antibody, V domains shown)
VH: QSLEESGGRLVTPGTALTLTCTVSGFSLSSYAMGWVRQAPGKGLEYIGWTSPGDSAYYASWTKGRFTISRTSTTVELKITSPTTEDTATYFCARDAAYIGHWAFNLWGPGTLVTVSS
VL: DVVMTQTPASVSAPVGGTVTINCQASESIYSNLAWYQQKPGQPPKLLIYGASTLESGVPSRVKGSGYGTQFTLTISDLECADAATYYCQQYYGSSSTAFTFGGGTKVEIK
**Q.** Which results are given for B1?
**A.** IC50, Jurkat NFAT-Luc T cell activation [1]: 0.248 µg/mL; IC50, Jurkat NFAT-Luc T cell activation [2]: 0.0735 µg/mL; IC50, Jurkat NFAT-Luc T cell activation [3]: 0.0605 µg/mL; IC50, Jurkat NFAT-Luc T cell activation [4]: 0.0769 µg/mL; IC50, Jurkat NFAT-Luc T cell activation [5]: 0.0719 µg/mL; IC50, Jurkat NFAT-Luc T cell activation [6]: 0.0759 µg/mL; IC50, Jurkat NFAT-Luc T cell activation [7]: 0.0765 µg/mL; IC50, Jurkat NFAT-Luc T cell activation [8]: 0.119 µg/mL; IC50 (read off the curve) [9]: ~0.03 microgram/mL

B2: DQN0344xx (antibody, V domains shown)
VH: QSLEESGGGLVKPGGTLTLTCTASGFSFSSSYWMCWVRQAPGKGLEWVACVYGGSDTTYYASWTKGRFTISKGSSTTVALQVTSLTAADTATYFCARDPLNYYYYGELNLWGPGTLVTVSS
VL: AVVLTQTASPVSAAVGGTVTIRCQATENIYSGLAWYQQKPGQPPKVLIYYVSTLASGVPSRFKGSGSGTEYTLTISGVQCDDAATYYCQTYHDISNVTFGGGTKVEIK
**Q.** B2 was tested. Which “IC50, Jurkat NFAT-Luc T cell activation” value [2] did it give?
**A.** 0.00998 µg/mL

**Q.** And the “IC50, Jurkat NFAT-Luc T cell activation” value [3]?
**A.** 0.00082 µg/mL

**Q.** And the “IC50, Jurkat NFAT-Luc T cell activation” value [5]?
**A.** 0.0124 µg/mL

**Q.** And the “IC50, Jurkat NFAT-Luc T cell activation” value [7]?
**A.** 0.0272 µg/mL

**Q.** And the “% MFI” value [10]?
**A.** 66.6%

**Q.** What about the “% MFI” value [11] of the same binder?
**A.** 42.2%

**Q.** What about the “% MFI” value [12] of the same binder?
**A.** 0.4%

**Q.** And the “% MFI” value [13]?
**A.** 52.2%

**Q.** What about the “% MFI” value [14] of the same binder?
**A.** 107%

**Q.** And the “% MFI” value [15]?
**A.** 3.2%

**Q.** What about the “% MFI” value [16] of the same binder?
**A.** 37.6%

**Q.** What about the “% MFI” value [17] of the same binder?
**A.** 49.5%

**Q.** What about the “% MFI” value [18] of the same binder?
**A.** 77.1%

**Q.** What about the “% MFI” value [19] of the same binder?
**A.** 48.6%

**Q.** And the “% MFI” value [20]?
**A.** 60.9%

**Q.** And the “% MFI” value [21]?
**A.** 18.8%

**Q.** What about the “% MFI” value [22] of the same binder?
**A.** 69.5%

**Q.** What about the “% MFI” value [23] of the same binder?
**A.** 1%

**Q.** And the “% MFI” value [24]?
**A.** 48.4%

B3: DQN0385ee (antibody, V domains shown)
VH: QEQLEESGGDLVKPGASLTLTCTASGFSFYSSYWICWVRQAPGKGLEWIACIDTGSGSIDYASWVNGRFTISKTSSTTVTLQMTSLTVADTATYFCARDIGIDYNFWGPGTLVTVSS
VL: AFELTQTPSFVEAAVGGTVTIKCQATQSISSYLNWYQQKPGQPPKLLIYYASTLASGVPSRFKGSGSGTEFSLTISGVECADAATYYCHYGISYVSFGGGTKVEIK
notes: also called DQN0385xx
**Q.** Which “% MFI” value [25] does the source give for B3 here?
**A.** 1%

**Q.** And the “IC50, Jurkat NFAT-Luc T cell activation” value [1]?
**A.** 0.000758 µg/mL

**Q.** What about the “IC50, Jurkat NFAT-Luc T cell activation” value [26] of the same binder?
**A.** 4.9 µg/mL

**Q.** What about the “IC50, Jurkat NFAT-Luc T cell activation” value [3] of the same binder?
**A.** 0.000264 µg/mL

**Q.** What about the “IC50, Jurkat NFAT-Luc T cell activation” value [4] of the same binder?
**A.** 0.381 µg/mL

**Q.** What about the “IC50, Jurkat NFAT-Luc T cell activation” value [6] of the same binder?
**A.** 0.0164 µg/mL

**Q.** What about the “IC50, Jurkat NFAT-Luc T cell activation” value [7] of the same binder?
**A.** 0.64 µg/mL

**Q.** And the “IC50, Jurkat NFAT-Luc T cell activation” value [8]?
**A.** 0.0217 µg/mL

**Q.** And the “% MFI” value [10]?
**A.** 20.3%

**Q.** And the “% MFI” value [11]?
**A.** 59.7%

**Q.** What about the “% MFI” value [12] of the same binder?
**A.** 57.7%

**Q.** And the “% MFI” value [14]?
**A.** 56.2%

**Q.** And the “% MFI” value [15]?
**A.** 70.8%

**Q.** And the “% MFI” value [16]?
**A.** 32.5%

**Q.** What about the “% MFI” value [27] of the same binder?
**A.** 4.4%

**Q.** What about the “% MFI” value [17] of the same binder?
**A.** 16.5%

**Q.** What about the “% MFI” value [28] of the same binder?
**A.** 61.8%

**Q.** And the “% MFI” value [18]?
**A.** 9.7%

**Q.** And the “% MFI” value [19]?
**A.** 28%

**Q.** And the “% MFI” value [20]?
**A.** 19.1%

**Q.** What about the “% MFI” value [29] of the same binder?
**A.** 20.6%

**Q.** What about the “% MFI” value [21] of the same binder?
**A.** 18.2%

**Q.** What about the “% MFI” value [30] of the same binder?
**A.** 70.7%

**Q.** And the “% MFI” value [31]?
**A.** 53%

**Q.** And the “% MFI” value [22]?
**A.** 70.9%

**Q.** And the “% MFI” value [23]?
**A.** 53.6%

**Q.** And the “% MFI” value [32]?
**A.** 71.4%
